The results in this text go back to US20210269499A1, “HEPATITIS B AND/OR HEPATITIS D-PERMISSIVE CELLS AND ANIMALS” (TECHNISCHE UNIVERSITAET MUENCHEN, priority 2018, published 2021).

One series concerns porcine NTCP. The experiment in a line: Guide RNA efficiency to cause Indel mutations in porcine kidney fibroblasts (CRISPR/Cas9). The series is classed as cell-based. Particulars: modified PX330 plasmid. The procedure:
Here, porcine kidney fibroblasts were transfected with a modified PX330 plasmid, carrying an additional Puromycin selection cassette, porcine NTCP guide RNA sequence and Cas9 nuclease. Several guide RNA sequences (18 bp long) were tested for their efficiency to cause Insertion/Deletion (Indel) mutations.

For series [1], the system named is HBV. Put plainly: HBV infection of HepG2 cells transfected with NTCP variants, HBeAg ELISA of supernatant. To be noted: HepG2 transfected with NTCP plasmid, HBV MOI 300, days 4, 7 and 10 after infection, FIG. 5A. The series is classed as cell-based, Hepatitis B virus. The procedure: However, neither of these approaches was successful with porcine NTCP. […] Therefore, these human cells are a valuable tool to analyze the effect of different NTCP muteins in a human cell culture system.
HepG2 cells were transfected with plasmids coding for different variants of NTCP: human (hNTCP), porcine (pNTCP) or chimeric (pNTCP w/ hAA). After transfection, the cells were incubated for three days with 2% DMSO before they were infected with HBV at an MOI of 300. The supernatant was collected at days 4, 7 and 10 after infection and analyzed for the viral protein HBeAg by ELISA.
Background: An ELISA detects its analyte on a solid surface through an enzyme-linked reagent.

Series [2] relates to HBV. The experiment in a line: qPCR of HBV rcDNA and cccDNA in PPH. The series is classed as cell-based, Hepatitis B virus. To be noted: day 5 after infection, FIG. 3. The procedure:
(§1) Primary porcine hepatocytes (PPH) were isolated from a pig liver less than 3 h after slaughter and kept in culture: For infection experiments, the cells were seeded in a 24 well plate and for Southern Blot experiments into 6 well plates. The next day, the cells were transduced with adenovirus at an MOI of 1 or 5 (see FIG. 2) and cultured in DMEM-F12 comprising […]. The sequences of the adenoviruses are shown in SEQ ID NO: 6 for Ad-hNTCP, SEQ ID NO: 7 for Ad-phNTCP and SEQ ID NO: 8 for Ad-hNTCP-tdTomato.
(§2) On day 4 after isolation (day 3 after transduction), the cells were infected with HBV (genotype D, serotype ayw) in DMEM-F12 with 4% PEG6000 with an MOI of 1000.
On day 5 after infection, the 24 well plates were lysed, frozen and then DNA was isolated and analyzed for rcDNA or cccDNA using qPCR. In detail, total cellular DNA was extracted using NucleoSpin Tissue kit (Macherey Nagel). For selective cccDNA PCR, isolated DNA was treated with 5 units of T5 exonuclease (NEB, Frankfurt, Germany) for 30 min in 10 μl reaction volume (Xia 2017b) followed by heat-inactivation at 95° C. for 5 min and 4-fold dilution with distilled water. Two different primer sets were used to detect total intracellular HBV DNA (HBV1844F: 5′-[…]-3′ (SEQ ID NO: 9) and HBV1745R: 5′-GGAGGGATACATAG (SEQ ID NO: 10).

Series [3] has as its system HBV. Put plainly: Southern Blot analysis of HBV cccDNA in PPH. The series is classed as cell-based, Hepatitis B virus. Particulars: day 4 after infection with HBV, FIG. 4. The procedure: as §1, §2
On days 3 and 5 after HBV infection, samples were taken for HBeAg measurements. Medium was changed on day 3 after HBV infection. The 6 well plate for the Southern Blot analysis was frozen at −80° C. on day 4 after HBV infection and used for a Hirt extraction with subsequent Southern Blot. To detect protein-free forms of HBV DNA including cccDNA, a modified Hirt extraction procedure was used (Yan et al. 2012). Intracellular capsid-associated DNA was prepared as described (Ko et al. 2014). Viral DNA forms were separated on an agarose gel, transferred onto a nylon membrane, and hybridized with a digoxigenin-labeled HBV-specific probe (Ko et al. 2014). DNA signal was detected by DIG Luminescent Detection Kit (Roche).

“NTCP G3: guide RNA sequence GAAGGACAAGGTGCCCTA (SEQ ID NO: 22) (expressed or natural sequence)”: in the series on porcine NTCP, the Indel frequency result is reported as “highest”.

B1: hNTCP: human NTCP receptor (SEQ ID NO: 4) (protein, listed as Homo sapiens)
chain: MEAHNASAPFNFTLPPNFGKRPTDLALSVILVFMLFFIMLSLGCTMEFSKIKAHLWKPKGLAIALVAQYGIMPLTAFVLGKVFRLKNIEALAILVCGCSPGGNLSNVFSLAMKGDMNLSIVMTTCSTFCALGMMPLLLYIYSRGIYDGDLKDKVPYKGIVISLVLVLIPCTIGIVLKSKRPQYMRYVIKGGMIIILLCSVAVTVLSAINVGKSIMFAMTPLLIATSSLMPFIGFLLGYVLSALFCLNGRCRRTVSMETGCQNVQLCSTILNVAFPPEVIGPLFFFPLLYMIFQLGEGLLLIAIFWCYEKFKTPKDKTKMIYTAATTEETIPGALGNGTYKGEDCSP
B1: the “susceptibility of HepG2 cells to HBV (HBeAg in supernatant)” value in the series with HBV [1] is “susceptible to HBV”. In the series on HBV [2], the “HBV cccDNA in PPH” value is recorded as “drastic increase” and the “HBV rcDNA in PPH” value was “drastic increase”. In addition, the “HBV cccDNA in Southern Blot” value in the series on HBV [3] is “show HBV cccDNA”.
